Earlier results in article PMC3350600.

Molecular target: PP1 (Homo sapiens) (UniProt P62136)
Chain of UniProt P62136 (P62136 2-330): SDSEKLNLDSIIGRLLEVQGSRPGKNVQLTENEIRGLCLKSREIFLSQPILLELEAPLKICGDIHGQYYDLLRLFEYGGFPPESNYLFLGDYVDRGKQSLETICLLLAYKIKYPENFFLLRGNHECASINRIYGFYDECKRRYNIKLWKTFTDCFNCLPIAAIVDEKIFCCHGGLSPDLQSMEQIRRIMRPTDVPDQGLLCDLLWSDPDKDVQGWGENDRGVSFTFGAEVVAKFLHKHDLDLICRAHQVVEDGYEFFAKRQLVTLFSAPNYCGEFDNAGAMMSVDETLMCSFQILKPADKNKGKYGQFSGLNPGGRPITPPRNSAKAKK

- Kd: 8 nM
Substance: Spinophilin PP1-binding domain (from UniProt O35274)
